{"source": "paper PMC3818982", "about": "(Microbial Cell Factories, 2013)", "binders": {"B1": {"name": "EGFR-specific single-domain antibody EG2 (VHH)", "VHH": "QVKLEESGGGLVQAGDSLRVSCAASGRDFSDYVMGWFRQAPGKEREFVAAISRNGLTTRYADSVKGRFTISRDNDKNMVYLQMNSLKPEDTAVYYCAVNSAGTYVSPRSREYDYWGQGTQVTVSS", "notes": "an initial methionine was added by the NcoI site; Camelid-derived sdAb; Intradomain disulfide bridge formed in about 98% of the purified protein; also called sdAb EG2; ^99mTc-EG2; source: E. coli SHuffle T7 Express, cytoplasm (pET-28b:EG2), purified (Ni-IDA IMAC); not shown: His6, C-terminal, kept"}}, "target": "T1, human epidermal growth factor receptor (EGFR) (Homo sapiens (A431 and FaDu cells), UniProt P00533)", "T1 construct": "human EGFR, full-length receptor presented by living A431 (epidermoid carcinoma) and FaDu (squamous carcinoma) cells; also called human EGFR; source: endogenous, on living A431 and FaDu cells", "assay": "radioligand binding; ^99mTc-labelled sdAb on A431 and FaDu cells, 1 h on ice, with or without pre-blocking by a 40-fold excess of unlabeled Cetuximab; read-out % ID/mg protein", "settings": "one partner purified", "data": [{"binder": "B1", "values": [{"measurement": "binding result", "result": "binds"}]}]}
